B1: 5-hydroxytryptamine receptor 2C (Homo sapiens), P28335 (parent)
chain: MVNLRNAVHSFLVHLIGLLVWQSDISVSPVAAIVTDIFNTSDGGRFKFPDGVQNWPALSIVIIIIMTIGGNILVIMAVSMEKKLHNATNYFLMSLAIADMLVGLLVMPLSLLAILYDYVWPLPRYLCPVWISLDVLFSTASIMHLCAISLDRYVAIRNPIEHSRFNSRTKAIMKIAIVWAISIGVSVPIPVIGLRDEEKVFVNNTTCVLNDPNFVLIGSFVAFFIPLTIMVITYCLTIYVLRRQALMLLHGHTEEPPGLSLDFLKCCKRNTAEEENSANPNQDQNARRRKKKERRPRGTMQAINNERKASKVLGIVFFVFLIMWCPFFITNILSVLCEKSCNQKLMEKLLNVFVWIGYVCSGINPLVYTLFNKIYRRAFSNYLRCNYKVEKKPPVRQIPRVAATALSGRELNVNIYRHTNEPVIEKASDNEPGIEMQVENLELPVNPSSVVSERISSV
B2: Vang-like protein 2 (Homo sapiens), Q9ULK5 (parent)
chain: MDTESQYSGYSYKSGHSRSSRKHRDRRDRHRSKSRDGGRGDKSVTIQAPGEPLLDNESTRGDERDDNWGETTTVVTGTSEHSISHDDLTRIAKDMEDSVPLDCSRHLGVAAGATLALLSFLTPLAFLLLPPLLWREELEPCGTACEGLFISVAFKLLILLLGSWALFFRRPKASLPRVFVLRALLMVLVFLLVVSYWLFYGVRILDARERSYQGVVQFAVSLVDALLFVHYLAVVLLELRQLQPQFTLKVVRSTDGASRFYNVGHLSIQRVAVWILEKYYHDFPVYNPALLNLPKSVLAKKVSGFKVYSLGEENSTNNSTGQSRAVIAAAARRRDNSHNEYYYEEAEHERRVRKRRARLVVAVEEAFTHIKRLQEEEQKNPREVMDPREAAQAIFASMARAMQKYLRTTKQQPYHTMESILQHLEFCITHDMTPKAFLERYLAAGPTIQYHKERWLAKQWTLVSEEPVTNGLKDGIVFLLKRQDFSLVVSTKKVPFFKLSEEFVDPKSHKFVMRLQSETSV
B3: Inward rectifier potassium channel 4 (Homo sapiens), P48050 (parent)
chain: MHGHSRNGQAHVPRRKRRNRFVKKNGQCNVYFANLSNKSQRYMADIFTTCVDTRWRYMLMIFSAAFLVSWLFFGLLFWCIAFFHGDLEASPGVPAAGGPAAGGGGAAPVAPKPCIMHVNGFLGAFLFSVETQTTIGYGFRCVTEECPLAVIAVVVQSIVGCVIDSFMIGTIMAKMARPKKRAQTLLFSHHAVISVRDGKLCLMWRVGNLRKSHIVEAHVRAQLIKPYMTQEGEYLPLDQRDLNVGYDIGLDRIFLVSPIIIVHEIDEDSPLYGMGKEELESEDFEIVVILEGMVEATAMTTQARSSYLASEILWGHRFEPVVFEEKSHYKVDYSRFHKTYEVAGTPCCSARELQESKITVLPAPPPPPSAFCYENELALMSQEEEEMEEEAAAAAAVAAGLGLEAGSKEEAGIIRMLEFGSHLDLERMQASLPLDNISYRRESAI
B4: A-kinase anchor protein 1, mitochondrial (Homo sapiens), Q92667 (parent)
chain: MAIQFRSLFPLALPGMLALLGWWWFFSRKKGHVSSHDEQQVEAGAVQLRADPAIKEPLPVEDVCPKVVSTPPSVTEPPEKELSTVSKLPAEPPALLQTHPPCRRSESSGILPNTTDMRLRPGTRRDDSTKLELALTGGEAKSIPLECPLSSPKGVLFSSKSAEVCKQDSPFSRVPRKVQPGYPVVPAEKRSSGERARETGGAEGTGDAVLGEKVLEEALLSREHVLELENSKGPSLASLEGEEDKGKSSSSQVVGPVQEEEYVAEKLPSRFIESAHTELAKDDAAPAPPVADAKAQDRGVEGELGNEESLDRNEEGLDRNEEGLDRNEESLDRNEEGLDRNEEIKRAAFQIISQVISEATEQVLATTVGKVAGRVCQASQLQGQKEESCVPVHQKTVLGPDTAEPATAEAAVAPPDAGLPLPGLPAEGSPPPKTYVSCLKSLLSSPTKDSKPNISAHHISLASCLALTTPSEELPDRAGILVEDATCVTCMSDSSQSVPLVASPGHCSDSFSTSGLEDSCTETSSSPRDKAITPPLPESTVPFSNGVLKGELSDLGAEDGWTMDAEADHSGGSDRNSMDSVDSCCSLKKTESFQNAQAGSNPKKVDLIIWEIEVPKHLVGRLIGKQGRYVSFLKQTSGAKIYISTLPYTQSVQICHIEGSQHHVDKALNLIGKKFKELNLTNIYAPPLPSLALPSLPMTSWLMLPDGITVEVIVVNQVNAGHLFVQQHTHPTFHALRSLDQQMYLCYSQPGIPTLPTPVEITVICAAPGADGAWWRAQVVASYEETNEVEIRYVDYGGYKRVKVDVLRQIRSDFVTLPFQGAEVLLDSVMPLSDDDQFSPEADAAMSEMTGNTALLAQVTSYSPTGLPLIQLWSVVGDEVVLINRSLVERGLAQWVDSYYTSL
B5: Plakophilin-4 (Homo sapiens), Q99569 (parent)
chain: MPAPEQASLVEEGQPQTRQEAASTGPGMEPETTATTILASVKEQELQFQRLTRELEVERQIVASQLERCRLGAESPSIASTSSTEKSFPWRSTDVPNTGVSKPRVSDAVQPNNYLIRTEPEQGTLYSPEQTSLHESEGSLGNSRSSTQMNSYSDSGYQEAGSFHNSQNVSKADNRQQHSFIGSTNNHVVRNSRAEGQTLVQPSVANRAMRRVSSVPSRAQSPSYVISTGVSPSRGSLRTSLGSGFGSPSVTDPRPLNPSAYSSTTLPAARAASPYSQRPASPTAIRRIGSVTSRQTSNPNGPTPQYQTTARVGSPLTLTDAQTRVASPSQGQVGSSSPKRSGMTAVPQHLGPSLQRTVHDMEQFGQQQYDIYERMVPPRPDSLTGLRSSYASQHSQLGQDLRSAVSPDLHITPIYEGRTYYSPVYRSPNHGTVELQGSQTALYRTGSVGIGNLQRTSSQRSTLTYQRNNYALNTTATYAEPYRPIQYRVQECNYNRLQHAVPADDGTTRSPSIDSIQKDPREFAWRDPELPEVIHMLQHQFPSVQANAAAYLQHLCFGDNKVKMEVCRLGGIKHLVDLLDHRVLEVQKNACGALRNLVFGKSTDENKIAMKNVGGIPALLRLLRKSIDAEVRELVTGVLWNLSSCDAVKMTIIRDALSTLTNTVIVPHSGWNNSSFDDDHKIKFQTSLVLRNTTGCLRNLSSAGEEARKQMRSCEGLVDSLLYVIHTCVNTSDYDSKTVENCVCTLRNLSYRLELEVPQARLLGLNELDDLLGKESPSKDSEPSCWGKKKKKKKRTPQEDQWDGVGPIPGLSKSPKGVEMLWHPSVVKPYLTLLAESSNPATLEGSAGSLQNLSAGNWKFAAYIRAAVRKEKGLPILVELLRMDNDRVVSSVATALRNMALDVRNKELIGKYAMRDLVNRLPGGNGPSVLSDETMAAICCALHEVTSKNMENAKALADSGGIEKLVNITKGRGDRSSLKVVKAAAQVLNTLWQYRDLRSIYKKDGWNQNHFITPVSTLERDRFKSHPSLSTTNQQMSPIIQSVGSTSSSPALLGIRDPRSEYDRTQPPMQYYNSQGDATHKGLYPGSSKPSPIYISSYSSPAREQNRRLQHQQLYYSQDDSNRKNFDAYRLYLQSPHSYEDPYFDDRVHFPASTDYSTQYGLKSTTNYVDFYSTKRPSYRAEQYPGSPDSWV
B6: Sodium bicarbonate cotransporter 3 (Homo sapiens), Q9Y6M7 (parent)
chain: MERFRLEKKLPGPDEEAVVDLGKTSSTVNTKFEKEELESHRAVYIGVHVPFSKESRRRHRHRGHKHHHRRRKDKESDKEDGRESPSYDTPSQRVQFILGTEDDDEEHIPHDLFTEMDELCYRDGEEYEWKETARWLKFEEDVEDGGDRWSKPYVATLSLHSLFELRSCILNGTVMLDMRASTLDEIADMVLDNMIASGQLDESIRENVREALLKRHHHQNEKRFTSRIPLVRSFADIGKKHSDPHLLERNGEGLSASRHSLRTGLSASNLSLRGESPLSLLLGHLLPSSRAGTPAGSRCTTPVPTPQNSPPSSPSISRLTSRSSQESQRQAPELLVSPASDDIPTVVIHPPEEDLEAALKGEEQKNEENVDLTPGILASPQSAPGNLDNSKSGEIKGNGSGGSRENSTVDFSKVDMNFMRKIPTGAEASNVLVGEVDFLERPIIAFVRLAPAVLLTGLTEVPVPTRFLFLLLGPAGKAPQYHEIGRSIATLMTDEIFHDVAYKAKDRNDLLSGIDEFLDQVTVLPPGEWDPSIRIEPPKSVPSQEKRKIPVFHNGSTPTLGETPKEAAHHAGPELQRTGRLFGGLILDIKRKAPFFLSDFKDALSLQCLASILFLYCACMSPVITFGGLLGEATEGRISAIESLFGASLTGIAYSLFAGQPLTILGSTGPVLVFEKILYKFCRDYQLSYLSLRTSIGLWTSFLCIVLVATDASSLVCYITRFTEEAFAALICIIFIYEALEKLFDLGETYAFNMHNNLDKLTSYSCVCTEPPNPSNETLAQWKKDNITAHNISWRNLTVSECKKLRGVFLGSACGHHGPYIPDVLFWCVILFFTTFFLSSFLKQFKTKRYFPTKVRSTISDFAVFLTIVIMVTIDYLVGVPSPKLHVPEKFEPTHPERGWIISPLGDNPWWTLLIAAIPALLCTILIFMDQQITAVIINRKEHKLKKGAGYHLDLLMVGVMLGVCSVMGLPWFVAATVLSISHVNSLKVESECSAPGEQPKFLGIREQRVTGLMIFILMGLSVFMTSVLKFIPMPVLYGVFLYMGVSSLKGIQLFDRIKLFGMPAKHQPDLIYLRYVPLWKVHIFTVIQLTCLVLLWVIKVSAAAVVFPMMVLALVFVRKLMDLCFTKRELSWLDDLMPESKKKKEDDKKKKEKEEAERMLQDDDDTVHLPFEGGSLLQIPVKALKYSPDKPVSVKISFEDEPRKKYVDAETSL
B7: Vang-like protein 1 (Homo sapiens), Q8TAA9 (parent)
chain: MDTESTYSGYSYYSSHSKKSHRQGERTRERHKSPRNKDGRGSEKSVTIQPPTGEPLLGNDSTRTEEVQDDNWGETTTAITGTSEHSISQEDIARISKDMEDSVGLDCKRYLGLTVASFLGLLVFLTPIAFILLPPILWRDELEPCGTICEGLFISMAFKLLILLIGTWALFFRKRRADMPRVFVFRALLLVLIFLFVVSYWLFYGVRILDSRDRNYQGIVQYAVSLVDALLFIHYLAIVLLELRQLQPMFTLQVVRSTDGESRFYSLGHLSIQRAALVVLENYYKDFTIYNPNLLTASKFRAAKHMAGLKVYNVDGPSNNATGQSRAMIAAAARRRDSSHNELYYEEAEHERRVKKRKARLVVAVEEAFIHIQRLQAEEQQKAPGEVMDPREAAQAIFPSMARALQKYLRITRQQNYHSMESILQHLAFCITNGMTPKAFLERYLSAGPTLQYDKDRWLSTQWRLVSDEAVTNGLRDGIVFVLKCLDFSLVVNVKKIPFIILSEEFIDPKSHKFVLRLQSETSV

Variants of: B1
Conditions: with dlg1_human DLG1, Q12959
Target sequence in this assay (Q12959 whole entry, looked up): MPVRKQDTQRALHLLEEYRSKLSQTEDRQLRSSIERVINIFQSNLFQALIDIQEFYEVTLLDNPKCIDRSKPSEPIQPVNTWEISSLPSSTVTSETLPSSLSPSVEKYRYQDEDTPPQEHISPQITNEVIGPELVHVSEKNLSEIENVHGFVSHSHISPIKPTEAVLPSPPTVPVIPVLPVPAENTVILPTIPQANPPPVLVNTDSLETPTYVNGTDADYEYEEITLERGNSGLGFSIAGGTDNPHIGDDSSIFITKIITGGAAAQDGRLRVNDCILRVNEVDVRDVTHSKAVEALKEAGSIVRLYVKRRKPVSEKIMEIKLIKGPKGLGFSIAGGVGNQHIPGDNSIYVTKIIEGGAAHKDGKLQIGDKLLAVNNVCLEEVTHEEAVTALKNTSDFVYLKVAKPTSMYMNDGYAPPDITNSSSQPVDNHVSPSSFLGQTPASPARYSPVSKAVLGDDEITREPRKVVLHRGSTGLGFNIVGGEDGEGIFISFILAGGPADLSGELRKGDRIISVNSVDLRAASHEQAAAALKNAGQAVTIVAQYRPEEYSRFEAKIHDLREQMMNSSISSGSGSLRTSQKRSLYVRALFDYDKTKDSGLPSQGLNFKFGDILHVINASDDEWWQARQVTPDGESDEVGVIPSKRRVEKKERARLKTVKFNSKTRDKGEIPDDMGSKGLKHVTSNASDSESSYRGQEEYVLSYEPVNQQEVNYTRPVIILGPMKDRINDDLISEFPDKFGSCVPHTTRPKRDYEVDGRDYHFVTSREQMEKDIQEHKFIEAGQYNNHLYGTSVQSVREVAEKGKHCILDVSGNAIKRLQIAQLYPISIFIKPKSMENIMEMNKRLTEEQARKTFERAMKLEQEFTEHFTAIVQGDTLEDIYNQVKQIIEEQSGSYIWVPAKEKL

effect of a mutation on the interaction	Variant
with no effect	S457E

Variants of: B2
Conditions: with dlg1_human DLG1, Q12959
Target sequence in this assay (Q12959 whole entry, looked up): as above

effect of a mutation on the interaction	Variant
with no effect	S517E;S520E
increasing interaction strength	S520E

Variants of: B3
Conditions: with scrib_human SCRIB
Target sequence in this assay (Q14160 whole entry): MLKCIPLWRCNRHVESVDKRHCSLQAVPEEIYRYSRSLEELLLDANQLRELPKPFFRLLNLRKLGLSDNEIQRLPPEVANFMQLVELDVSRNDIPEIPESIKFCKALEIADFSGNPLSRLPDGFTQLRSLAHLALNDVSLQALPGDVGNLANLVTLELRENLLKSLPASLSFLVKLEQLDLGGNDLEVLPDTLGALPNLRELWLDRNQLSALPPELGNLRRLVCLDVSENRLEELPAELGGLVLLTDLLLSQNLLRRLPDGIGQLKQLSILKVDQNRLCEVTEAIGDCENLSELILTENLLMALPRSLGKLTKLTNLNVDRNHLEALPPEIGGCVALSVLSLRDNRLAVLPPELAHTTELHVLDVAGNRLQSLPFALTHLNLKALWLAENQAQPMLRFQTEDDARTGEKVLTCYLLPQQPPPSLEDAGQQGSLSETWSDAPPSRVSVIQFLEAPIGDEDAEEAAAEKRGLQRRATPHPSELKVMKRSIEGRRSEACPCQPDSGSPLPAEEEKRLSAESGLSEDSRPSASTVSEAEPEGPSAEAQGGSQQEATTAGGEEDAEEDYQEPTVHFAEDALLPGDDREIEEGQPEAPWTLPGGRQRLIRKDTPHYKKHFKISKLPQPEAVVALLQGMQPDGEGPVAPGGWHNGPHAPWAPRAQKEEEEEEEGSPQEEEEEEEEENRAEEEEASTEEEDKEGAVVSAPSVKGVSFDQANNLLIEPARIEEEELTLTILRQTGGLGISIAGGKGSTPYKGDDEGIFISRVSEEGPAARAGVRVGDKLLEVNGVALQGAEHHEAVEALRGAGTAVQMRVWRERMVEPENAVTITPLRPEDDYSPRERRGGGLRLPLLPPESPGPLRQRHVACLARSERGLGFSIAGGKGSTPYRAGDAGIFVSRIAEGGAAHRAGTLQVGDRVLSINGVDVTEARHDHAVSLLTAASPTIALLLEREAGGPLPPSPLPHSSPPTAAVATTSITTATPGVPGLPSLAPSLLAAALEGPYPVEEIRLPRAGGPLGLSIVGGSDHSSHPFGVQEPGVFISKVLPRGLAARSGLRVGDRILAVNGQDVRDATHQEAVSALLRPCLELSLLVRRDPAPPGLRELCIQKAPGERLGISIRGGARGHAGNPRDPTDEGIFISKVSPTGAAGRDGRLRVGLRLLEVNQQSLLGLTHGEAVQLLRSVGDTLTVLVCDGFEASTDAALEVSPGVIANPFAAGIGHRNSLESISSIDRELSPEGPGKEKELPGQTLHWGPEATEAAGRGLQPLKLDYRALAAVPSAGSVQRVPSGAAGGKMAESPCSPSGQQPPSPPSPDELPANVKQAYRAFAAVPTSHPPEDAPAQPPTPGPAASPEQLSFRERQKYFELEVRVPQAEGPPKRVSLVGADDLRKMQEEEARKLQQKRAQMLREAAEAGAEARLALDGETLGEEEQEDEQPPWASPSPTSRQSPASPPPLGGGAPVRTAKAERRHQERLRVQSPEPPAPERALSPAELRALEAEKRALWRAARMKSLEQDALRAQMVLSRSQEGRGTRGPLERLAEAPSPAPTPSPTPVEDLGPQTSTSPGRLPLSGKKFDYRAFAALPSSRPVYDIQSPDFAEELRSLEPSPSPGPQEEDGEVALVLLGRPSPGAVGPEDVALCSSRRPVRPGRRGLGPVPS

effect of a mutation on the interaction	Variant
disrupting interaction strength	S443E

Variants of: B4
Conditions: with scrib_human SCRIB
Target sequence in this assay (Q14160 whole entry): as above

effect of a mutation on the interaction	Variant
increasing interaction strength	S902E

Variants of: B5
Conditions: with dlg1_human DLG1, Q12959
Target sequence in this assay (Q12959 whole entry, looked up): as the sequence (Q12959 whole entry, looked up) above

effect of a mutation on the interaction	Variant
disrupting interaction strength	S1190E

Variants of: B6
Conditions: with scrib_human SCRIB
Target sequence in this assay (Q14160 whole entry): as the sequence (Q14160 whole entry) above

effect of a mutation on the interaction	Variant
with no effect	S1213E

Variants of: B7
Conditions: with dlg1_human DLG1, Q12959
Target sequence in this assay (Q12959 whole entry, looked up): as the sequence (Q12959 whole entry, looked up) above

effect of a mutation on the interaction	Variant
increasing interaction strength	S523E

Source: IntAct's records for PubMed 30126976
